What was measured:
[1] = test system: T1, NC(=O)C1=CN([C@@H]2O[C@H](COP(=O)(O)OP(=O)(O)OC[C@H]3O[C@@H](n4cnc5c(N)ncnc54)[C@H](OP(=O)(O)O)[C@@H]3O)[C@@H](O)[C@H]2O)C=CC1; test: cytochrome c reduction, A550; assay type: biochemical, Panax ginseng; settings: 100 μmol/L cytochrome c, NADPH 0-400 μmol/L, 50 mmol/L Tris HCl pH 7.4, 0.1 mmol/L EDTA, 25 °C
T1 construct: pET28a, His-tag, E. coli BL21(DE3), Ni-NTA

[2] = test system: NC(=O)C1=CN([C@@H]2O[C@H](COP(=O)(O)OP(=O)(O)OC[C@H]3O[C@@H](n4cnc5c(N)ncnc54)[C@H](OP(=O)(O)O)[C@@H]3O)[C@@H](O)[C@H]2O)C=CC1; test: purified protein; settings: 100 μmol/L cytochrome c, NADPH 0-400 μmol/L, 50 mmol/L Tris HCl pH 7.4, 0.1 mmol/L EDTA, 25 °C

Sequence of PgCPR2 (Panax ginseng) (chain, as listed by the source): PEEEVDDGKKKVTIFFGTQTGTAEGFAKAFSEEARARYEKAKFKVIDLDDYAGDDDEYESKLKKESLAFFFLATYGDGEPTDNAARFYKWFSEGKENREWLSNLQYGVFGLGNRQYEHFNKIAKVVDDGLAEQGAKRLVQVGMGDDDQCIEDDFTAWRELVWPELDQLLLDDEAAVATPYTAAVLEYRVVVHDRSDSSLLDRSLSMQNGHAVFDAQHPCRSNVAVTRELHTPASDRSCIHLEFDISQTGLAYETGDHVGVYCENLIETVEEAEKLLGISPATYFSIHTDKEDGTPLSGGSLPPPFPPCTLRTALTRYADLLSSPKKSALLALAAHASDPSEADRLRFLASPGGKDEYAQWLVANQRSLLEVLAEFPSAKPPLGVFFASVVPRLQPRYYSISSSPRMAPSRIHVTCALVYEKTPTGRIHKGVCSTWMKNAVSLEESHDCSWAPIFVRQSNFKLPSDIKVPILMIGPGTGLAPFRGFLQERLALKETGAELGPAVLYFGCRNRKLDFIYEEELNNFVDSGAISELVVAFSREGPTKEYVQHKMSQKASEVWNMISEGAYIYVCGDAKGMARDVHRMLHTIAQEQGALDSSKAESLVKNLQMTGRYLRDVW
Sequence of PgCPR1 (Panax ginseng) (chain, as listed by the source): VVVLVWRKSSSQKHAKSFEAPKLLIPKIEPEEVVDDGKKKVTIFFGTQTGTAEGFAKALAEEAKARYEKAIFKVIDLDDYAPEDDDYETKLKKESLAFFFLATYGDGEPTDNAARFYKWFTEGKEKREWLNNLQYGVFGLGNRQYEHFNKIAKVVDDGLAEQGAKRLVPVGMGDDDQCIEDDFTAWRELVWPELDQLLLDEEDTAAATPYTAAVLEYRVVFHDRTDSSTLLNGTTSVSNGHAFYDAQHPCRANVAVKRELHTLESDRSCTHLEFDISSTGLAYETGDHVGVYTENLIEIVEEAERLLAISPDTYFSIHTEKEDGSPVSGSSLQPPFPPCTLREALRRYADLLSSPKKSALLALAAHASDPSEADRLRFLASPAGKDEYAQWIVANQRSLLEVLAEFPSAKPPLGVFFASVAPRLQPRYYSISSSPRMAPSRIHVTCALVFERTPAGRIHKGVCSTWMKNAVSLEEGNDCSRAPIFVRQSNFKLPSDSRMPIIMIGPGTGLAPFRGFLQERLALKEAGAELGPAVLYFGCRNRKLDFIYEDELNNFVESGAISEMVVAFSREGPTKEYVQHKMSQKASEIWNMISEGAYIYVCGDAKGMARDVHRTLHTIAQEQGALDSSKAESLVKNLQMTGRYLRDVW

Row | Substance | Km [1] [µM] | kcat [1] [s⁻¹] | kcat/Km [1] [M⁻¹ s⁻¹] | Km [2] [µM] | kcat [2] [s⁻¹] | kcat/Km [2] [M⁻¹ s⁻¹]
1 | PgCPR2 (Panax ginseng) | 85.27 ± 6.07 | 3.38 ± 0.087 | 39600 |  |  | 
2 | AtCPR1 (Arabidopsis thaliana) |  |  |  | 84.61 ± 8.548 | 2.74 | 32400
3 | PgCPR1 (Panax ginseng) | 62.9 ± 5.807 | 3.32 ± 0.0968 | 52800 |  |  | 

Source: publication PMC8588036, “Molecular Cloning and Identification of NADPH Cytochrome P450 Reductase from Panax ginseng” (Molecules, 2021)
